The values below come from patent publication US10370642B2, “Hematopoietic progenitor cell populations having affinity for E-selectin / L-selectin” (priority 2000, dated 2019).

The test system of assay [1] is HL60 cells. The experiment in a line: CHO-E cell rolling on glutaraldehyde-fixed HL60 monolayers. Format: cell-based, human. As to conditions: 2.8 dynes/cm^2; EDTA 5 mM; HECA 452 50 μg/ml. The source says: (§1) E-selectin-mediated adhesive interactions, under defined shear stress, were examined between hematopoietic cell monolayers and suspensions of CHO-E (Chinese hamster ovary cells stably transfected with full-length cDNA encoding human E-selectin) in flow. CHO-E and empty vector constructs (CHO-Mock) were maintained in MEM 10% FBS/1% Penicillin/Streptomycin (Life Technologies, Inc.) and HAM's F-12 (Cellgro, Inc.)/5% FCS/1% Penicillin/Streptomycin, respectively. CHO-E cell tethering and rolling on hematopoietic cell monolayers was visualized by video microscopy in real time using the parallel-plate flow chamber. […] To prepare hematopoietic cell monolayers>90% confluent, suspensions of cells (KG1a, HL60, K562, or RPMI 8402) at 2×10^6/ml RPMI1640 without NaBicarbonate/2% FBS were cytocentrifuged in […] plates at 5×10^6/well and then fixed in 3% glutaraldehyde. Reactive aldehyde groups were blocked in 0.2M lysine, and plated cells were suspended H/H/Ca++. […] The number of CHO-E/Mock cell rolling on each monolayer was measured in one frame of five independent fields under 10× magnification from multiple experiments. A minimum of 3 experiments was performed and results were expressed as the mean±standard deviation.

Assay [2] has as its system KG1a cells. The experiment in a line: CHO-E cell rolling on glutaraldehyde-fixed KG1a monolayers. Particulars: 2.8 dynes/cm^2; EDTA 5 mM; HECA 452 50 μg/ml. The assay is classed as cell-based, human.
From the text: as §1

Assay [3] addresses T1, L-selectin (Rattus norvegicus, UniProt P30836).
T1 construct: L-selectin naturally expressed on leukocytes; endogenous in cells; host or cells: lymphocytes (rat thoracic duct lymphocytes; human PBMC also prepared)
T1 sequence (P30836 39-372): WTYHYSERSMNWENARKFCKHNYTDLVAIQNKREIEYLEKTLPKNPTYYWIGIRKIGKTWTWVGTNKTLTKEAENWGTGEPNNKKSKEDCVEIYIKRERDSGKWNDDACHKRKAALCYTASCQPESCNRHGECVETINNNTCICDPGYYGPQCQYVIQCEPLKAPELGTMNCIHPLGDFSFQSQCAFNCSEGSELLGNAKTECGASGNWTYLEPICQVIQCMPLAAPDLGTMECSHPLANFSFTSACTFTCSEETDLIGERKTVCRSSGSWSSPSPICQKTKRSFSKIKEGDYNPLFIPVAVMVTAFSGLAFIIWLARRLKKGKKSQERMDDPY
In words: Stamper-Woodruff assay, lymphocyte adherence to immunoprecipitated CD44 and PSGL-1. The assay is classed as cell-based. Particulars: 80 rpm; for Mean Number of Bound Lymphocytes: 0.75 μg/spot (PSGL-1 1 μg/spot), 4° C., 100× mag. Here is the method: These protein spots were then fixed in 3% glutaraldehyde, unreactive aldehyde groups were blocked in 0.2M lysine and slides were kept in RPMI-1640 without NaBicarbonate/2% FBS until ready for testing. Lymphocytes (10^7/ml RPMI-1640 without NaBicarbonate/5% FBS) were overlayed onto these fixed immunoprecipitates and incubated on an orbital shaker at 80 rpm for 30 min. at 4° C. The number of adherent lymphocytes was quantified by light microscopy using an ocular grid under 100× magnification (a minimum of 5 fields/slide, 2 slides/experiment, and 3 separate experiments). Data were presented as the mean number of bound lymphocytes±standard deviation. KG1a CD34 and L-selectin control immunoprecipitates were also tested in this manner. To verify the dependence for sialic acid, glutaraldehyde-fixed spots were treated with Vibrio cholerae neuraminidase (0.1 U/ml RPMI-1640 without NaBicarbonate/2% FBS for lhr at 37° C.).
Immunoaffinity purified material (0.75-3 μg/spot) was spotted onto glass slides for analyses in the Stamper-Woodruff assay (See below for assay description). For autoradiographic analysis of immunoprecipitated [^35S]-methionine-radiolabeled CD44 and PSGL-1, immunoprecipitates were spotted onto glass slides, allowed to dry and exposed Kodak BioMax-MR film for 12 h at −80° C. Densitometric analysis (optical density) of the autoradiograms was performed with a Hewlett-Packard Scanj et 5200C scanner and NIH Image processing and analysis program.

The target in assay [4] is T2, E-selectin (Homo sapiens, UniProt P16581).
T2 construct: stably transfected with full-length cDNA encoding human E-selectin; expressed in transfected cells
T2 sequence (P16581 22-610): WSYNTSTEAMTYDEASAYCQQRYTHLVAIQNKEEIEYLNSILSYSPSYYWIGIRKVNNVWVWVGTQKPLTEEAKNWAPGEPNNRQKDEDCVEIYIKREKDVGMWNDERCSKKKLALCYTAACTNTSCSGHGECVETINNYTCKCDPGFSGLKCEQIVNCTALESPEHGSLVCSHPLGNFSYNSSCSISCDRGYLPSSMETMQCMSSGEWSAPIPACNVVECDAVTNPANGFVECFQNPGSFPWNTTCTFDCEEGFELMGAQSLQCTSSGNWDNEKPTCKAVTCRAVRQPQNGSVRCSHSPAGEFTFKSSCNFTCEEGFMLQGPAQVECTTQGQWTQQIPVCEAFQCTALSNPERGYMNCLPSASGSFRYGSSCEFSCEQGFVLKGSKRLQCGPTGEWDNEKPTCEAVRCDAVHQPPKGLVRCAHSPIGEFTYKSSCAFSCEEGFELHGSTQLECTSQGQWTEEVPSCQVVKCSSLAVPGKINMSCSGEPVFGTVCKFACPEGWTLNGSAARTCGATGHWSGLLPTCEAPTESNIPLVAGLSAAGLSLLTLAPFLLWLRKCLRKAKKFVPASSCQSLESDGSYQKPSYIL
The experiment in a line: Blot rolling assay with CHO-E cells. Format: cell-based. Particulars: immunoprecipitated CD44 on Western blot; 3.8 dynes/cm^2. Here is the method: The blot rolling assay was performed as previously described (Dimitroff et al., 2000). Briefly, CHO-E, CHO—P or CHO-Mock transfectants were isolated as described above, washed twice in HBSS and suspended at 10^7/ml in HBSS/10 mM HEPES/2mMCaCl2 (H/H/Ca++)/10% glycerol. Western blots of HPC membrane preparations stained with HECA-452 were rendered transparent by incubating them in H/H/Ca++/10% glycerol. The blots were then placed in the parallel-plate flow chamber, and CHO transfectants (2×10^6/ml) were perfused into the chamber. After allowing the cells to come in contact with the blotting membrane, the flow rate was adjusted to exert a shear stress of 3.8 dynes/cm^2. The viscosity of 10% glycerol adhesion assay medium was considered in the calculation of shear stress values. The number of cells rolling on and between each immunostained banding region was quantified under 100× magnification within each field of view on the video monitor using molecular weight markers (Kaleidoscope Molecular Weight Markers, Bio-Rad Lab.; See Blue® from Novex, Inc.) as guides to help align and visualize the apparent molecular weights of the proteins of interest. A minimum of 3 experiments was performed and results were expressed as the mean±SD of cell rolling/field at 100× magnification.
(A western blot detects proteins with antibodies after separation by electrophoresis.)

The target of assay [5] is T2, E-selectin. In words: CHO-E cell rolling on immobilized immunoprecipitates, parallel-plate flow chamber. The assay is classed as cell-based. As to conditions: immunoprecipitates on plastic; 2.8 dynes/cm^2. Here is the method: CD44 was immunoprecipitated from untreated cell lysates or from cell lysates treated with N-glycosidase-F (0.8 U/ml) Vibrio cholerae neuraminidase (0.1 U/ml) or a-L-fucosidase (80 mU/ml), and PSGL-1 was immunoprecipitated from untreated cell lysates as previously described (Sackstein and Dimitroff, 2000; Dimitroff et al., 2000).
CD44 or PSGL-1 immunoprecipitates were spotted onto plastic petri dishes, fixed in 3% glutaraldehyde and incubated in 0.2M lysine to block unreactive aldehyde groups, and then non-specific binding was prevented by incubating in 100% FBS for 1 hr at RT. Fixed spots were also treated with Vibrio cholerae neuraminidase (0.1 U/ml assay medium), which was overlaid onto the spots and incubated at 37° C. for 1 hr. […] The flow rate was then increased to achieve a shear stress of 2.8 dynes/cm^2. The frequency of cells rolling per 100× magnification field was determined, and data were expressed as the mean±standard deviation of 8 fields visualized from a minimum of 3 experiments.

With `O=C(O)CN(CCN(CC(=O)O)CC(=O)O)CC(=O)O` [EDTA], in assay [1], the “CHO-E cell rolling / E-selectin ligand activity of HL60 cells” value is reported as “completely inhibited”. In addition, the “CHO-E cell rolling / E-selectin ligand activity of KG1a cells” value in assay [2] is recorded as “completely inhibited”.
For “AML (M1) CD44: CD44 (HCELL) immunoprecipitated from blasts of an AML without maturation (M1)”, the “Mean Number of Bound Lymphocytes” value in assay [3] came to 425.3. The “fold higher mean number of lymphocytes bound to CD44 than to PSGL-1” value in assay [3] (p<0.001) amounted to 3 fold.
Regarding “AML (M1) N-glycosidase-F CD44: N-glycosidase-F-treated CD44 from AML (M1) blasts”, the “Mean Number of Bound Lymphocytes” value in assay [3] turned out to be 23.4.
Take “BMEC-1 CD44: CD44 from human BM endothelial cell line BMEC-1”: the “E-selectin ligand activity (CHO-E cell rolling) in blot rolling assay” value in assay [4] is given as “did not possess any E-selectin ligand activity”.
Turning to “a-L-fucosidase-treated KG1a CD44: CD44 immunoprecipitated from a-L-fucosidase-treated KG1a lysate”, the “E-selectin ligand activity (CHO-E cell rolling)” value in assay [5] is given as “abrogated CHO-E cell rolling”.
In the case of “RPMI 8402 CD44: CD44 isolated from RPMI 8402 cells”, the “E-selectin ligand activity (CHO-E cell rolling)” value in assay [5] is “did not support any CHO-E cell rolling”.
“K562 CD44: CD44 isolated from K562 cells”: the “E-selectin ligand activity (CHO-E cell rolling)” value in assay [5] was “did not support any CHO-E cell rolling”.
Take “HL60 CD44: CD44 immunoprecipitated from HL60 cells”: the “Mean Number of Bound Lymphocytes” value in assay [3] amounted to 6.5. For the same molecule, the “E-selectin ligand activity (CHO-E cell rolling)” value in assay [5] is listed as “did not support any CHO-E cell rolling”.

B1: L-selectin (Molecular Control): L-selectin (LAM 1-3) immunoprecipitated from KG1a cells, negative molecular control (protein)
chain: WTYHYSEKPMNWQRARRFCRDNYTDLVAIQNKAEIEYLEKTLPFSRSYYWIGIRKIGGIWTWVGTNKSLTEEAENWGDGEPNNKKNKEDCVEIYIKRNKDAGKWNDDACHKLKAALCYTASCQPWSCSGHGECVEIINNYTCNCDVGYYGPQCQFVIQCEPLEAPELGTMDCTHPLGNFSFSSQCAFSCSEGTNLTGIEETTCGPFGNWSSPEPTCQVIQCEPLSAPDLGIMNCSHPLASFSFTSACTFICSEGTELIGKKKTICESSGIWSNPSPICQKLDKSFSMIKEGDYNPLFIPVAVMVTAFSGLAFIIWLARRLKKGKKSKRSMNDPY
With B1, the “Mean Number of Bound Lymphocytes” value in assay [3] is 0.5.

B2: CD34 (Molecular Control): CD34 (QBend-10) immunoprecipitated from KG1a cells, negative molecular control (protein)
chain: SLDNNGTATPELPTQGTFSNVSTNVSYQETTTPSTLGSTSLHPVSQHGNEATTNITETTVKFTSTSVITSVYGNTNSSVQSQTSVISTVFTTPANVSTPETTLKPSLSPGNVSDLSTTSTSLATSPTKPYTSSSPILSDIKAEIKCSGIREVKLTQGICLEQNKTSSCAEFKKDRGEGLARVLCGEEQADADAGAQVCSLLLAQSEVRPQCLLLVLANRTEISSKLQLMKKHQSDLKKLGILDFTEQDVASHQSYSQKTLIALVTSGALLAVLGITGYFLMNRRSWSPTGERLGEDPYYTENGGGQGYSSGPGTSPEAQGKASVNRGAQENGTGQATSRNGHSARQHVVADTEL
On to B2, for which the “Mean Number of Bound Lymphocytes” value in assay [3] was found to be 4.0.

B3: HL60 PSGL-1: PSGL-1 immunoprecipitated from HL60 cells (protein)
chain: QATEYEYLDYDFLPETEPPEMLRNSTDTTPLTGPGTPESTTVEPAARRSTGLDAGGAVTELTTELANMGNLSTDSAAMEIQTTQPAATEAQTTQPVPTEAQTTPLAATEAQTTRLTATEAQTTPLAATEAQTTPPAATEAQTTQPTGLEAQTTAPAAMEAQTTAPAAMEAQTTPPAAMEAQTTQTTAMEAQTTAPEATEAQTTQPTATEAQTTPLAAMEALSTEPSATEALSMEPTTKRGLFIPFSVSSVTHKGIPMAASNLSVNYPVGAPDHISVKQCLLAILILALVATIFFVCTVVLAVRLSRKGHMYPVRNYSPTEMVCISSLLPDGGEGPSATANGGLSKAKSPGLTPEPREDREGDDLTLHSFLP
In the case of B3, the “Mean Number of Bound Lymphocytes” value in assay [3] came to 11.0.

B4: AML (M1) PSGL-1: PSGL-1 immunoprecipitated from AML (M1) blasts (protein)
chain: B3 chain
On to B4, for which, in assay [3], the “Mean Number of Bound Lymphocytes” value was found to be 141.5.
